Numbered stars: 1 amine (or outer) side, 2 acyl side, 3 side chain; on linkers, the order of the positions; unused ones are H or OH. Square brackets hold non-standard residues; d marks the D form. Side chains are listed from the residue outwards. Ends that are not written are not given here. * marks the point of attachment. C20 diacid = O=C(O)CCCCCCCCCCCCCCCCCCC(=O)*; γGlu = O=C(O)[C@H](CCC(=O)[*:2])N[*:1]; αMeF = C[C@](N)(Cc1ccccc1)C(=O)O; AEEA = NCCOCCOCC(=O)O; Aib = CC(C)(N)C(=O)O

One test addresses T1, human GIP receptor (human, UniProt P48546 22-466).
T1 sequence (looked up): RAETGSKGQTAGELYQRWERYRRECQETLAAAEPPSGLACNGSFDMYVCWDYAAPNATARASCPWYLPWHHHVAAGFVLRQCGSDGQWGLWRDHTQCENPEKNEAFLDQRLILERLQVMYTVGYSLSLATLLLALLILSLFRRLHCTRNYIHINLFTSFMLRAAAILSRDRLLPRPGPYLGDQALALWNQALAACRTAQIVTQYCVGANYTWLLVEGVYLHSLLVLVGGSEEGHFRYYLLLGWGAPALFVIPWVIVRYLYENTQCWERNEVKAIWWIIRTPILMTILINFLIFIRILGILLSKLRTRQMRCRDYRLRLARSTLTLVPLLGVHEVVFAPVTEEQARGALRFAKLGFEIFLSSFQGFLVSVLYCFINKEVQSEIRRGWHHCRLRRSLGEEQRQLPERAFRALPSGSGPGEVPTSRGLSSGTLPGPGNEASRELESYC
In words: cell-based or functional assay.

The target in a further test is human GLP-1 receptor (human, UniProt P43220 24-463). Description: cell-based or functional assay.

B1: Example 117 (peptide)
peptide: Y[Aib]EGT[αMeF]TSDYSI[Aib]LDEK([AEEA-AEEA-γGlu-C20 diacid])AQ[Aib]AFIEYLIEGGPSSGAPPPS-NH2
modifications: N-terminus assumed
SMILES: CC[C@H](C)[C@H](NC(=O)[C@H](CC(C)C)NC(=O)[C@H](Cc1ccc(O)cc1)NC(=O)[C@H](CCC(=O)O)NC(=O)[C@@H](NC(=O)[C@H](Cc1ccccc1)NC(=O)[C@H](C)NC(=O)C(C)(C)NC(=O)[C@H](CCC(N)=O)NC(=O)[C@H](C)NC(=O)[C@H](CCCCNC(=O)COCCOCCNC(=O)COCCOCCNC(=O)CC[C@H](NC(=O)CCCCCCCCCCCCCCCCCCC(=O)O)C(=O)O)NC(=O)[C@H](CCC(=O)O)NC(=O)[C@H](CC(=O)O)NC(=O)[C@H](CC(C)C)NC(=O)C(C)(C)NC(=O)[C@@H](NC(=O)[C@H](CO)NC(=O)[C@H](Cc1ccc(O)cc1)NC(=O)[C@H](CC(=O)O)NC(=O)[C@H](CO)NC(=O)[C@@H](NC(=O)[C@](C)(Cc1ccccc1)NC(=O)[C@@H](NC(=O)CNC(=O)[C@H](CCC(=O)O)NC(=O)C(C)(C)NC(=O)[C@@H](N)Cc1ccc(O)cc1)[C@@H](C)O)[C@@H](C)O)[C@@H](C)CC)[C@@H](C)CC)C(=O)N[C@@H](CCC(=O)O)C(=O)NCC(=O)NCC(=O)N1CCC[C@H]1C(=O)N[C@@H](CO)C(=O)N[C@@H](CO)C(=O)NCC(=O)N[C@@H](C)C(=O)N1CCC[C@H]1C(=O)N1CCC[C@H]1C(=O)N1CCC[C@H]1C(=O)N[C@@H](CO)C(N)=O
For B1, in the test with human GIP receptor, the “hGIPR cAMP EC50 ratio” value was 2.44 and the “hGIPR cAMP Rel EC50” value came to 0.0648 nM. In the test with human GLP-1 receptor, the “hGLP1R cAMP EC50 ratio” value was found to be 0.998 and the “hGLP1R cAMP Rel EC50” value stood at 0.0615 nM.

B2: Example 7 (peptide)
peptide: Y[Aib]EGTFTSDYSILLDSK([AEEA-AEEA-γGlu-C20 diacid])AQ[Aib]AFIEYLLEGGPSSGAPPPS-NH2
modifications: N-terminus assumed
SMILES: CC[C@H](C)[C@H](NC(=O)[C@H](Cc1ccccc1)NC(=O)[C@H](C)NC(=O)C(C)(C)NC(=O)[C@H](CCC(N)=O)NC(=O)[C@H](C)NC(=O)[C@H](CCCCNC(=O)COCCOCCNC(=O)COCCOCCNC(=O)CC[C@H](NC(=O)CCCCCCCCCCCCCCCCCCC(=O)O)C(=O)O)NC(=O)[C@H](CO)NC(=O)[C@H](CC(=O)O)NC(=O)[C@H](CC(C)C)NC(=O)[C@H](CC(C)C)NC(=O)[C@@H](NC(=O)[C@H](CO)NC(=O)[C@H](Cc1ccc(O)cc1)NC(=O)[C@H](CC(=O)O)NC(=O)[C@H](CO)NC(=O)[C@@H](NC(=O)[C@H](Cc1ccccc1)NC(=O)[C@@H](NC(=O)CNC(=O)[C@H](CCC(=O)O)NC(=O)C(C)(C)NC(=O)[C@@H](N)Cc1ccc(O)cc1)[C@@H](C)O)[C@@H](C)O)[C@@H](C)CC)C(=O)N[C@@H](CCC(=O)O)C(=O)N[C@@H](Cc1ccc(O)cc1)C(=O)N[C@@H](CC(C)C)C(=O)N[C@@H](CC(C)C)C(=O)N[C@@H](CCC(=O)O)C(=O)NCC(=O)NCC(=O)N1CCC[C@H]1C(=O)N[C@@H](CO)C(=O)N[C@@H](CO)C(=O)NCC(=O)N[C@@H](C)C(=O)N1CCC[C@H]1C(=O)N1CCC[C@H]1C(=O)N1CCC[C@H]1C(=O)N[C@@H](CO)C(N)=O
Turning to B2, in the test with human GIP receptor, the “hGIPR cAMP EC50 ratio” value came to 0.317 and the “hGIPR cAMP Rel EC50” value is 0.461 nM. Also, in the test with human GLP-1 receptor, the “hGLP1R cAMP EC50 ratio” value was found to be 0.13 and the “hGLP1R cAMP Rel EC50” value came out at 0.47 nM.

B3: Example 113 (peptide)
peptide: YXEGTFTSDYSILLDKKAQXAFIEYLIEGGPSSGAPPPS
modifications: Aib2; K17((2-[2-(2-Amino-ethoxy)-ethoxy]-acetyl)2-(ϵK)-CO-(CH2)18-CO2H); Aib20; C-terminal NH2
B3: the “hGIPR cAMP Rel EC50” value in the test with human GIP receptor is 0.166 nM. Moreover, the “hGLP1R cAMP Rel EC50” value with human GLP-1 receptor came out at 0.233 nM.

B4: Example 8 (peptide)
peptide: B3 peptide
modifications: Aib2; K17((2-[2-(2-Amino-ethoxy)-ethoxy]-acetyl)2-(γ-Glu)-CO-(CH2)18-CO2H); Aib20; C-terminal NH2
On to B4, for which the “hGIPR cAMP Rel EC50” value with human GIP receptor was 0.0848 nM. The “hGLP1R cAMP Rel EC50” value in the test with human GLP-1 receptor worked out at 0.148 nM.

The values above are taken from US20220048967A1 (published 2022).
